Numbered stars: 1 amine (or outer) side, 2 acyl side, 3 side chain; on linkers, the order of the positions; unused ones are H or OH. Square brackets hold non-standard residues; d marks the D form. Side chains are listed from the residue outwards. * marks the point of attachment. C18 diacid = O=C(O)CCCCCCCCCCCCCCCCC(=O)*; γGlu = O=C(O)[C@H](CCC(=O)[*:2])N[*:1]; Aib = CC(C)(N)C(=O)O
B1: Compound 18 (peptide)
peptide: H-H[Aib]EGSFTSELATILDK([γGlu-C18 diacid])QAARDFIAWLIQHKITD-OH
SMILES: CC[C@H](C)[C@H](NC(=O)[C@H](Cc1ccccc1)NC(=O)[C@H](CC(=O)O)NC(=O)[C@H](CCCNC(=N)N)NC(=O)[C@H](C)NC(=O)[C@H](C)NC(=O)[C@H](CCC(N)=O)NC(=O)[C@H](CCCCNC(=O)CC[C@H](NC(=O)CCCCCCCCCCCCCCCCC(=O)O)C(=O)O)NC(=O)[C@H](CC(=O)O)NC(=O)[C@H](CC(C)C)NC(=O)[C@@H](NC(=O)[C@@H](NC(=O)[C@H](C)NC(=O)[C@H](CC(C)C)NC(=O)[C@H](CCC(=O)O)NC(=O)[C@H](CO)NC(=O)[C@@H](NC(=O)[C@H](Cc1ccccc1)NC(=O)[C@H](CO)NC(=O)CNC(=O)[C@H](CCC(=O)O)NC(=O)C(C)(C)NC(=O)[C@@H](N)Cc1c[nH]cn1)[C@@H](C)O)[C@@H](C)O)[C@@H](C)CC)C(=O)N[C@@H](C)C(=O)N[C@@H](Cc1c[nH]c2ccccc12)C(=O)N[C@@H](CC(C)C)C(=O)N[C@H](C(=O)N[C@@H](CCC(N)=O)C(=O)N[C@@H](Cc1c[nH]cn1)C(=O)N[C@@H](CCCCN)C(=O)N[C@H](C(=O)N[C@H](C(=O)N[C@@H](CC(=O)O)C(=O)O)[C@@H](C)O)[C@@H](C)CC)[C@@H](C)CC
B2: Compound 20 (peptide)
peptide: H-H[Aib]EGTFSSELATILDK([γGlu-C18 diacid])QAARDFIAWLIEHKITD-OH
SMILES: CC[C@H](C)[C@H](NC(=O)[C@H](Cc1ccccc1)NC(=O)[C@H](CC(=O)O)NC(=O)[C@H](CCCNC(=N)N)NC(=O)[C@H](C)NC(=O)[C@H](C)NC(=O)[C@H](CCC(N)=O)NC(=O)[C@H](CCCCNC(=O)CC[C@H](NC(=O)CCCCCCCCCCCCCCCCC(=O)O)C(=O)O)NC(=O)[C@H](CC(=O)O)NC(=O)[C@H](CC(C)C)NC(=O)[C@@H](NC(=O)[C@@H](NC(=O)[C@H](C)NC(=O)[C@H](CC(C)C)NC(=O)[C@H](CCC(=O)O)NC(=O)[C@H](CO)NC(=O)[C@H](CO)NC(=O)[C@H](Cc1ccccc1)NC(=O)[C@@H](NC(=O)CNC(=O)[C@H](CCC(=O)O)NC(=O)C(C)(C)NC(=O)[C@@H](N)Cc1c[nH]cn1)[C@@H](C)O)[C@@H](C)O)[C@@H](C)CC)C(=O)N[C@@H](C)C(=O)N[C@@H](Cc1c[nH]c2ccccc12)C(=O)N[C@@H](CC(C)C)C(=O)N[C@H](C(=O)N[C@@H](CCC(=O)O)C(=O)N[C@@H](Cc1c[nH]cn1)C(=O)N[C@@H](CCCCN)C(=O)N[C@H](C(=O)N[C@H](C(=O)N[C@@H](CC(=O)O)C(=O)O)[C@@H](C)O)[C@@H](C)CC)[C@@H](C)CC
B3: Compound 19 (peptide)
peptide: H-H[Aib]EGTFTSELATILDK([γGlu-C18 diacid])QAARDFIAWLIQHKITD-OH
SMILES: CC[C@H](C)[C@H](NC(=O)[C@H](Cc1ccccc1)NC(=O)[C@H](CC(=O)O)NC(=O)[C@H](CCCNC(=N)N)NC(=O)[C@H](C)NC(=O)[C@H](C)NC(=O)[C@H](CCC(N)=O)NC(=O)[C@H](CCCCNC(=O)CC[C@H](NC(=O)CCCCCCCCCCCCCCCCC(=O)O)C(=O)O)NC(=O)[C@H](CC(=O)O)NC(=O)[C@H](CC(C)C)NC(=O)[C@@H](NC(=O)[C@@H](NC(=O)[C@H](C)NC(=O)[C@H](CC(C)C)NC(=O)[C@H](CCC(=O)O)NC(=O)[C@H](CO)NC(=O)[C@@H](NC(=O)[C@H](Cc1ccccc1)NC(=O)[C@@H](NC(=O)CNC(=O)[C@H](CCC(=O)O)NC(=O)C(C)(C)NC(=O)[C@@H](N)Cc1c[nH]cn1)[C@@H](C)O)[C@@H](C)O)[C@@H](C)O)[C@@H](C)CC)C(=O)N[C@@H](C)C(=O)N[C@@H](Cc1c[nH]c2ccccc12)C(=O)N[C@@H](CC(C)C)C(=O)N[C@H](C(=O)N[C@@H](CCC(N)=O)C(=O)N[C@@H](Cc1c[nH]cn1)C(=O)N[C@@H](CCCCN)C(=O)N[C@H](C(=O)N[C@H](C(=O)N[C@@H](CC(=O)O)C(=O)O)[C@@H](C)O)[C@@H](C)CC)[C@@H](C)CC
B4: Compound 16 (peptide)
peptide: H-H[Aib]EGTFTSELATILDK([γGlu-C18 diacid])EAARLFIAWLIEHKITD-OH
SMILES: CC[C@H](C)[C@H](NC(=O)[C@H](Cc1ccccc1)NC(=O)[C@H](CC(C)C)NC(=O)[C@H](CCCNC(=N)N)NC(=O)[C@H](C)NC(=O)[C@H](C)NC(=O)[C@H](CCC(=O)O)NC(=O)[C@H](CCCCNC(=O)CC[C@H](NC(=O)CCCCCCCCCCCCCCCCC(=O)O)C(=O)O)NC(=O)[C@H](CC(=O)O)NC(=O)[C@H](CC(C)C)NC(=O)[C@@H](NC(=O)[C@@H](NC(=O)[C@H](C)NC(=O)[C@H](CC(C)C)NC(=O)[C@H](CCC(=O)O)NC(=O)[C@H](CO)NC(=O)[C@@H](NC(=O)[C@H](Cc1ccccc1)NC(=O)[C@@H](NC(=O)CNC(=O)[C@H](CCC(=O)O)NC(=O)C(C)(C)NC(=O)[C@@H](N)Cc1c[nH]cn1)[C@@H](C)O)[C@@H](C)O)[C@@H](C)O)[C@@H](C)CC)C(=O)N[C@@H](C)C(=O)N[C@@H](Cc1c[nH]c2ccccc12)C(=O)N[C@@H](CC(C)C)C(=O)N[C@H](C(=O)N[C@@H](CCC(=O)O)C(=O)N[C@@H](Cc1c[nH]cn1)C(=O)N[C@@H](CCCCN)C(=O)N[C@H](C(=O)N[C@H](C(=O)N[C@@H](CC(=O)O)C(=O)O)[C@@H](C)O)[C@@H](C)CC)[C@@H](C)CC
B5: Compound 17 (peptide)
peptide: H-H[Aib]EGTFSSELATILDK([γGlu-C18 diacid])QAARDFIAWLIQHKITD-OH
SMILES: CC[C@H](C)[C@H](NC(=O)[C@H](Cc1ccccc1)NC(=O)[C@H](CC(=O)O)NC(=O)[C@H](CCCNC(=N)N)NC(=O)[C@H](C)NC(=O)[C@H](C)NC(=O)[C@H](CCC(N)=O)NC(=O)[C@H](CCCCNC(=O)CC[C@H](NC(=O)CCCCCCCCCCCCCCCCC(=O)O)C(=O)O)NC(=O)[C@H](CC(=O)O)NC(=O)[C@H](CC(C)C)NC(=O)[C@@H](NC(=O)[C@@H](NC(=O)[C@H](C)NC(=O)[C@H](CC(C)C)NC(=O)[C@H](CCC(=O)O)NC(=O)[C@H](CO)NC(=O)[C@H](CO)NC(=O)[C@H](Cc1ccccc1)NC(=O)[C@@H](NC(=O)CNC(=O)[C@H](CCC(=O)O)NC(=O)C(C)(C)NC(=O)[C@@H](N)Cc1c[nH]cn1)[C@@H](C)O)[C@@H](C)O)[C@@H](C)CC)C(=O)N[C@@H](C)C(=O)N[C@@H](Cc1c[nH]c2ccccc12)C(=O)N[C@@H](CC(C)C)C(=O)N[C@H](C(=O)N[C@@H](CCC(N)=O)C(=O)N[C@@H](Cc1c[nH]cn1)C(=O)N[C@@H](CCCCN)C(=O)N[C@H](C(=O)N[C@H](C(=O)N[C@@H](CC(=O)O)C(=O)O)[C@@H](C)O)[C@@H](C)CC)[C@@H](C)CC
B6: Compound 15 (peptide)
peptide: H-H[Aib]EGTFTSELATILDK([γGlu-C18 diacid])LAARDFIAWLIAHKITD-OH
SMILES: CC[C@H](C)[C@H](NC(=O)[C@H](CC(C)C)NC(=O)[C@H](Cc1c[nH]c2ccccc12)NC(=O)[C@H](C)NC(=O)[C@@H](NC(=O)[C@H](Cc1ccccc1)NC(=O)[C@H](CC(=O)O)NC(=O)[C@H](CCCNC(=N)N)NC(=O)[C@H](C)NC(=O)[C@H](C)NC(=O)[C@H](CC(C)C)NC(=O)[C@H](CCCCNC(=O)CC[C@H](NC(=O)CCCCCCCCCCCCCCCCC(=O)O)C(=O)O)NC(=O)[C@H](CC(=O)O)NC(=O)[C@H](CC(C)C)NC(=O)[C@@H](NC(=O)[C@@H](NC(=O)[C@H](C)NC(=O)[C@H](CC(C)C)NC(=O)[C@H](CCC(=O)O)NC(=O)[C@H](CO)NC(=O)[C@@H](NC(=O)[C@H](Cc1ccccc1)NC(=O)[C@@H](NC(=O)CNC(=O)[C@H](CCC(=O)O)NC(=O)C(C)(C)NC(=O)[C@@H](N)Cc1c[nH]cn1)[C@@H](C)O)[C@@H](C)O)[C@@H](C)O)[C@@H](C)CC)[C@@H](C)CC)C(=O)N[C@@H](C)C(=O)N[C@@H](Cc1c[nH]cn1)C(=O)N[C@@H](CCCCN)C(=O)N[C@H](C(=O)N[C@H](C(=O)N[C@@H](CC(=O)O)C(=O)O)[C@@H](C)O)[C@@H](C)CC

Experiments:
[1] = molecular target: T1, human GLP-2 receptor (hGLP2-R) (human, UniProt O95838); test: cell-based or functional assay
T1 sequence: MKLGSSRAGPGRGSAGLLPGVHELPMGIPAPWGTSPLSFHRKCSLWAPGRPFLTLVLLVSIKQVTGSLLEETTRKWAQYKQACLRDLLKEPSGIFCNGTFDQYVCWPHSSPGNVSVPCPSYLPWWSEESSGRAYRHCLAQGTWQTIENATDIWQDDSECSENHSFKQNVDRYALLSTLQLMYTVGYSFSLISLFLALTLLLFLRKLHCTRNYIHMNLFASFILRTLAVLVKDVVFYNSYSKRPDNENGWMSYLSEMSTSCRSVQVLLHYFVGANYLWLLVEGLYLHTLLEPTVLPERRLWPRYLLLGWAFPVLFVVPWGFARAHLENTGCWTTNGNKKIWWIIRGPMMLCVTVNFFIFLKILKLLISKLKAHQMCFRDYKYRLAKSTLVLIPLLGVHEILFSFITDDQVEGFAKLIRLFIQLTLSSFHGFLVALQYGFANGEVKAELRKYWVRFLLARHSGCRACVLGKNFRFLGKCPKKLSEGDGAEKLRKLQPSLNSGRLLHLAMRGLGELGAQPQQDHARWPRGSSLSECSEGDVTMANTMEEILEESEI

[2] = molecular target: human glucagon-like peptide 1 receptor (GLP-1R) (human, UniProt P43220); test: cell-based or functional assay

Row | Binder | EC50 GLP-2 (nM), cAMP AlphaScreen [1] [nM] | EC50 GLP-1 (nM), cAMP AlphaScreen [2] [nM]
1 | B1 | 0.21 | 0.19
2 | B2 | 0.37 | 0.55
3 | B3 | 0.23 | 0.066
4 | B4 | 0.68 | 0.073
5 | B5 | 0.33 | 0.9
6 | B6 | 0.16 | 0.25

Source: US20250073311A1, “DOSAGE REGIME” (ZEALAND PHARMA A/S, priority 2021, published 2025)
